The target in the test is β-arrestin-2-YFP, P32121. Description: BRET (CXCR4-RLuc / βarr2-YFP) in HEK293T cells. The note with it: chain shown with the change; CXCL12 1e-6 M (highest concentration of the curve), 15 min; coel-h 10 min; parent: est. 0.11; read off a plot.
β-arrestin-2-YFP, P32121, sequence (P32121 whole entry): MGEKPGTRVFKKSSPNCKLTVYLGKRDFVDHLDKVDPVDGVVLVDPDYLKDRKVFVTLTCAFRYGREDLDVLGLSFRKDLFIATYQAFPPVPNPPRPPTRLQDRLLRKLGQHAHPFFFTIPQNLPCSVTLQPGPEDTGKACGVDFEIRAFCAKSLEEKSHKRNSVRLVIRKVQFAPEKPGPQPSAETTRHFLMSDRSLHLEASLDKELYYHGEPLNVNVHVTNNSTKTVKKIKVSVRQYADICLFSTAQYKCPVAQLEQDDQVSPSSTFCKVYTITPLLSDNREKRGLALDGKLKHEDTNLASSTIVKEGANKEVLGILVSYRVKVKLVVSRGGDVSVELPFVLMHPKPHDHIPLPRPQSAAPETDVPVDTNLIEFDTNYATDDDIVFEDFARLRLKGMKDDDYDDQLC

B1: chemokine receptor CXCR4 WT, CXCR4-RLuc, P61073 V198F + V197M/V198W (protein)
chain: MEGISIYTSDNYTEEMGSGDYDSMKEPCFREENANFNKIFLPTIYSIIFLTGIVGNGLVILVMGYQKKLRSMTDKYRLHLSVADLLFVITLPFWAVDAVANWYFGNFLCKAVHVIYTVNLYSSVLILAFISLDRYLAIVHATNSQRPRKLLAEKVVYVGVWIPALLLTIPDFIFANVSEADDRYICDRFYPNDLWVMWFQFQHIMVGLILPGIVILSCYCIIISKLSHSKGHQKRKALKTTVILILAFFACWLPYYIGISIDSFILLEIIKQGCEFENTVHKWISITEALAFFHCCLNPILYAFLGAKFKTSAQHALTSVSRGSSLKILSKGKRGGHSSVSTESESSSFHSS
As for B1, the response is 0.09 ΔBRET.
